T1: recombinant cynomolgus monkey PD-1 expressed with a C-terminal myc-myc-hexahistidine tag (cynomolgus monkey (Macaca fascicularis))
T1 construct: monomeric; also called MfPD-1-MMH
T1 chain: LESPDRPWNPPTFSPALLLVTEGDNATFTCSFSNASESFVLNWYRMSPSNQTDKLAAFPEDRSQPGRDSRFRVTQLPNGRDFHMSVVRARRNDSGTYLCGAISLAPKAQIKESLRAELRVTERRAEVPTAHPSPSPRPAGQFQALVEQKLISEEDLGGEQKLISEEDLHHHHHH


Legend:
[1] = biological target: T2, recombinant human PD-1 expressed with a C-terminal myc-myc-hexahistidine tag (human); test: SPR, mAb captured, 37C;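 note: rate constants from fitting sensorgrams to a 1:1 binding model, KD derived as kd divided by ka and half-life as ln2/(60·kd)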
T2 construct: monomeric; also called hPD-1-MMH; human PD-1-MMH

[2] = biological target: T3, human PD-1 dimer (human PD-1-mFc or human PD-1-hFc) (human, UniProt Q15116 25-170); test: SPR, mAb captured, 25C;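 note: surface plasmon resonance on Biacore, PD-1 flowed over captured anti-PD-1 antibodies, rate constants from a 1:1 binding model fit, KD taken as kd/ka and t½ as ln2/(60·kd)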
T3 construct: also called hPD-1-mFc; hPD1-hFc
T3 sequence (Q15116 25-170 C93S): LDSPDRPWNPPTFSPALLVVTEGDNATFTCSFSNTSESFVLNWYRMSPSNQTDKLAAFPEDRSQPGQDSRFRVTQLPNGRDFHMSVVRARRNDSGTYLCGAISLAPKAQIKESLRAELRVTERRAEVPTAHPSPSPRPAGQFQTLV

[3] = biological target: T3, human PD-1 dimer (human PD-1-mFc or …); test: SPR, mAb captured, 37C
[4] = biological target: T1, recombinant cynomolgus monkey PD-1 …; test: SPR, mAb captured, 25C;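 note: rates from fitting Biacore data for PD-1 binding to anti-PD-1 antibodies with a 1:1 model, KD computed as koff/kon and t½ as ln2/(60·koff)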
[5] = biological target: T1, recombinant cynomolgus monkey PD-1 …; test: SPR, mAb captured, 37C

Binder	Kd [1] [nM]	koff [1] [s⁻¹]	kon [1] [M⁻¹ s⁻¹]	t½ [1] [min]	Kd [2] [nM]	koff [2] [s⁻¹]	kon [2] [M⁻¹ s⁻¹]	t½ [2] [min]	Kd [3] [nM]	koff [3] [s⁻¹]	kon [3] [M⁻¹ s⁻¹]	t½ [3] [min]	Kd [4] [nM]	koff [4] [s⁻¹]	kon [4] [M⁻¹ s⁻¹]	t½ [4] [min]	Kd [5] [nM]	koff [5] [s⁻¹]	kon [5] [M⁻¹ s⁻¹]	t½ [5] [min]
H4xH9135P2 (antibody, V domains shown, Human IgG4 Fc with 2 or more amino acid changes (H4xH)) VH: EVQLVESGGSVVRPGGSLRLSCVVSGFTFEDYGLSWVRQIPGKGLEWVSGISWTGGNTGYADSVKGRFTISRDNAKNSLYLQMNSLRAEDTALYHCTRDRQWLMQWYFDYWGQGTLVTVSS VL: not shown	26.6	0.0111	418000	1	0.651	0.000138	212000	84	2.27	0.000702	310000	16	10.6	0.00131	124000	8.8	28.9	0.0134	462000	0.9
H4xH9145P2 (antibody, V domains shown, Human IgG4 Fc with 2 or more amino acid changes (H4xH)) VH: QVQLVESGGGVVQPGRSLRLSCSASGFTFSAYAMHWVRQAPGKGLEWVAAISYGGSDKYYADSVKGRFTISRDNSKNTLYLQMNSLRTDDTAVYYCAKSAHWNFFFDYWGQGTLVTVSS VL: not shown	94	0.0123	131000	0.9	2.4	0.000158	65800	73	3.58	0.000571	160000	20	43.1	0.00124	28600	9.3	83.7	0.0143	171000	0.8
H4xH9037P (antibody, V domains shown, Human IgG4 Fc with 2 or more amino acid changes (H4xH); also called H4xH9037P2) VH: EVQLVESGGGLVQPGGSLRLSCAASGFTFDDYAMHWVRQAPGKGLEWVSGIGWSSGSIGYADSVKGRFTISRDNAKNSLYLQMDSLRPEDSALYYCAKAYTFMITLYFDYWGQGTLVTVSS VL: not shown	29.5	0.00668	226000	1.7	0.862	0.000129	150000	89	3.5	0.000921	263000	13	13.1	0.000915	69900	13	39.7	0.0088	222000	1.3
H4H7798N (antibody, human IgG4 S228P, kappa, V domains shown) VH: EVQLLESGGVLVQPGGSLRLSCAASGFTFSNFGMTWVRQAPGKGLEWVSGISGGGRDTYFADSVKGRFTISRDNSKNTLYLQMNSLKGEDTAVYYCVKWGNIYFDYWGQGTLVTVSS VL: DIQMTQSPSSLSASVGDSITITCRASLSINTFLNWYQQKPGKAPNLLIYAASSLHGGVPSRFSGSGSGTDFTLTIRTLQPEDFATYYCQQSSNTPFTFGPGTVVDFRR	7.48	0.0017	227000	7	0.122	5.4e-05	441000	214	0.175	0.000115	660000	100	3.86	0.000551	143000	21	10.5	0.00223	213000	5
H4H7795N2 (antibody, human IgG4 S228P, kappa, V domains shown) VH: EVQVVESGGGLVEPGRSLRLSCKASGFTFDDYAMHWVRQTPGKALEWVSGISWSGNNIGYADSVKGRFTISKDDAKNSLYLQMNSLRPEDTALYYCTKDISITGTLDAFDVWGQGTMVTVSS VL: DIQMTQSPISVSASVGDRVTITCRASQGISNWLAWYQQKPGIAPKLLIYSASSLQSGVPSRFRGSGSGTDFTLTIGSLQPEDFATYYCQQAHSFPLTFGGGTKVEIKR	104	0.00664	64100	1.7	0.615	9.25e-05	150000	125	1.65	0.000264	160000	44	22.4	0.00148	65900	8	88.3	0.00689	78000	1.7
H4xH9008P (antibody, V domains shown, Human IgG4 Fc with 2 or more amino acid changes (H4xH)) VH: EVQLVESGGGLVRPGGSLRLSCAASGFTFSTYAMAWVRQTPGKGLEGVSAIGGSGDSTYYVDSVKGRFTISRDNSKSTLFLQMNSLRAEDTAVYYCVKVRNYDGSFDIWGQGTMVTVSS VL: not shown	62.6	–	–	1.4	0.796	–	–	412	≤ 0.181	–	–	≥ 1160	23.8	–	–	4.6	23.5	–	–	0.8
H4xH9120P2 (antibody, V domains shown, Human IgG4 Fc with 2 or more amino acid changes (H4xH)) VH: QVQLVQSGAEVKRPGASVKVSCKASGYTFTSFYMYWVRQAPGQGLEWMGIINPSDGSTSNAQKFQGRVTMTRDTSTSTVYMELSSLRSEDTAVYYCARRVAGDIFDIWGQGTMVTVSS VL: not shown	102	0.00701	68800	1.6	1.82	0.000119	65200	97	5.96	0.000482	80800	24	34.1	0.00108	31700	11	107	0.00748	69800	1.5

Further binders by falling Kd [1], results first:

Kd [1] [nM]	koff [1] [s⁻¹]	kon [1] [M⁻¹ s⁻¹]	t½ [1] [min]	Kd [2] [nM]	koff [2] [s⁻¹]	kon [2] [M⁻¹ s⁻¹]	t½ [2] [min]	Kd [3] [nM]	koff [3] [s⁻¹]	kon [3] [M⁻¹ s⁻¹]	t½ [3] [min]	Kd [4] [nM]	koff [4] [s⁻¹]	kon [4] [M⁻¹ s⁻¹]	t½ [4] [min]	Kd [5] [nM]	koff [5] [s⁻¹]	kon [5] [M⁻¹ s⁻¹]	t½ [5] [min]	Binder
662	0.0532	80400	0.2	1.75	0.00016	91300	72	5.13	0.0011	214000	11	113	0.00705	62500	1.6	7540	0.105	14000	0.1	H4xH9045P (antibody, V domains shown, Human IgG4 Fc with 2 or more amino acid changes (H4xH); also called H4xH9045P2) VH: EVQLVESGGGLVQPGRSLRLSCAASGFTFDDYDMHWVRQAPGKGLEWVSGSGWNRGSLGYADSVKGRFTISRDNAKKSLYLQMNSVRVEDTALYYCAKGFVVVSAAYFDYWGQGTLVTVSS VL: not shown
43.5	0.0104	240000	1.1	0.992	0.000162	163000	71	3.8	0.000909	240000	13	22.2	0.00166	75000	6.9	51.4	0.0123	240000	0.9	H4xH9119P2 (antibody, V domains shown, Human IgG4 Fc with 2 or more amino acid changes (H4xH)) VH: EVQLVESGGGLVQPGRSLRLSCAASGFTFEDYAMHWVRQAPGKGLEWVSGIGWSNVKIGYADSVKGRFTISRDNVRNSLYLQMNSLRTEDTAFYYCVKAYTSMLTLYFDYWGQGTLVTVSS VL: not shown
42	0.00436	104000	2.6	1.59	0.000133	83700	87	3.68	0.000686	186000	17	17.7	0.000649	36800	18	46.1	0.00418	90600	2.8	H4xH9128P2 (antibody, V domains shown, Human IgG4 Fc with 2 or more amino acid changes (H4xH)) VH: QVQLQESGPGLVKPSETLSLTCTVSGGSISSYHWNWIRQSPGKGLEWIGYIYYIGSTDYNPSLESRVTISVDTSKNQFSLKLSSVTAADTAVYYCARVPVGATGASDVWGQGTMVTVSS VL: not shown
23.2	0.0086	370000	1.3	0.798	0.000188	236000	61	3.05	0.0011	361000	10	7	0.000897	128000	13	16.8	0.00697	415000	1.7	H4xH9048P2 (antibody, V domains shown, Human IgG4 Fc with 2 or more amino acid changes (H4xH)) VH: QVQLVQSGAEVKRPGSSVKVSCKVSGVTFRNFAIIWVRQAPGQGLEWMGGIIPFFSAANYAQSFQGRVTITPDESTSTAFMELASLRSEDTAVYYCAREGERGHTYGFDYWGQGTLVTVSS VL: not shown
15.7	–	–	1.2	0.217	–	–	96	0.596	–	–	26	3.09	–	–	8.7	9.41	–	–	1.2	H4xH8999P (antibody, V domains shown, Human IgG4 Fc with 2 or more amino acid changes (H4xH)) VH: QLQLQESGPGLVQPSETLSLTCTVSGDSISSTAYHWDWIRQPPGKGLEWIGTITYNGNTYFNPSLKSRVTISVDTSKNQFSLKLLSMTAAETAVFYCARHLGYNSDFFPFDFWGQGTLVTVSS VL: not shown
